Measurements from patent publication US7026443.
Read-outs that look alike come from different tables or passages of the source.

How the values were obtained:
[1] = target: HLA-B*0702 (human); assay: competition with 125I-labeled standard peptide for purified HLA, gel filtration
[2] = target: HLA-B*3501 (human); assay: as above
[3] = target: HLA-B*5101 (human); assay: as above
[4] = target: HLA-B*5301 (human); assay: as above
[5] = target: HLA-B*5401 (human); assay: as above
[6] = target: HLA-A*1101 (purified HLA class I molecule) (human); assay: competition with 125I-labelled standard peptide for purified HLA-A*1101, gel filtration
[7] = target: HLA-B*0702 (human)
[8] = target: HLA-B*3501 (human)
[9] = target: HLA-B*5301 (human)
[10] = target: HLA-A*0201 (purified HLA class I molecule) (human)
[11] = target: HLA-A*0301 (human); assay: competition with 125I-labeled standard peptide for purified HLA, gel filtration
[12] = target: HLA-A*1101 (human); assay: as above
[13] = target: HLA-A*0301 (human); assay: competition with 125I-labeled standard probe peptide for purified HLA-A*0301, gel filtration
[14] = target: HLA-B*0702 (human); assay: competition with 125I-labeled standard probe peptide for purified HLA, gel filtration; conditions: remark: other sources report otherwise; scale: ratio
[15] = target: HLA-B*3501 (human); assay: as above; conditions: remark: other sources report otherwise; scale: ratio
[16] = target: HLA-B*5101 (human); assay: as above; conditions: remark: other sources report otherwise; scale: ratio
[17] = target: HLA-B*5301 (human); assay: as above; conditions: remark: other sources report otherwise; scale: ratio
[18] = target: HLA-B*5401 (human); assay: as above; conditions: remark: other sources report otherwise; scale: ratio
[19] = target: HLA-A*0201 (human); assay: competition against 125I-labelled standard peptide on purified HLA-A*0201, gel filtration
[20] = target: HLA-A*2402 (human); assay: competition with 125I-labelled standard peptide for purified HLA, gel filtration

WPYLHNRLVV (modifications not checked) [HPV16 E1 576 …]
binding affinity ratio (IC50 of standard peptide / IC50 of test peptide) [1]: 0.095
binding affinity ratio (IC50 of standard peptide / IC50 of test peptide) [2]: 0.0012
binding affinity ratio (IC50 of standard peptide / IC50 of test peptide) [3]: 0.074
binding affinity ratio (IC50 of standard peptide / IC50 of test peptide) [4]: 0.0002
binding affinity ratio (IC50 of standard peptide / IC50 of test peptide) [5]: 0.076

RFEDPTRRPY (modifications not checked) [HPV18 E6 3-12 peptide …]
relative binding ratio (IC50 of standard peptide / IC50 of test peptide) [6]: 0.0002

RPIVQFLRY (modifications not checked) [HPV18 E1 447 peptide …]
binding affinity ratio (IC50 of standard peptide / IC50 of test peptide) [7]: 0.0033
binding affinity ratio (IC50 of standard peptide / IC50 of test peptide) [8]: 0.04
binding affinity ratio (IC50 of standard peptide / IC50 of test peptide) [9]: 0.023

YLVSPLSDI (modifications not checked) [HPV16 E1 peptide … (position 90, 9 amino acids)]
relative binding ratio (IC50 of standard peptide / IC50 of test peptide) (ratio to standard peptide) [10]: 0.02

ALYWYRTGI (modifications not checked) [HPV45 E1 peptide … (position 311, 9 amino acids)]
relative binding ratio (IC50 of standard peptide / IC50 of test peptide) [10]: 0.0032

NAKAAMLAK (modifications not checked) [HPV16 E1 peptide … (position 202, 9 amino acids)]
relative binding ratio (IC50 of standard peptide / IC50 of test peptide) [11]: 0.0005
relative binding ratio (IC50 of standard peptide / IC50 of test peptide) [12]: 0.0031
binding affinity ratio (IC50 of the standard peptide / IC50 of the test peptide) [13]: 0.0005

RARQERLQR (modifications not checked) [HPV18 E6 144-152 peptide …]
relative binding ratio (IC50 of standard peptide / IC50 of test peptide) [6]: 0.0002

SIPHAACHK (modifications not checked) [HPV18 E6 59-67 peptide …]
relative binding ratio (IC50 of standard peptide / IC50 of test peptide) [6]: 0.12

PLNPAEKLR (modifications not checked) [HPV18 E6 111-119 peptide …]
relative binding ratio (IC50 of standard peptide / IC50 of test peptide) [6]: 0.0005

EPDRAHYNIV (modifications not checked) [HPV16 E7 46 …]
relative binding ratio [14]: 0.0001
relative binding ratio [15]: 0.0001
relative binding ratio [16]: 0.0001
relative binding ratio [17]: 0.0001
relative binding ratio [18]: 0.0001

LLITSNINA (modifications not checked) [HPV16 E1 562 …]
relative binding ratio (IC50 of standard peptide / IC50 of test peptide) [19]: 0.0022

VYCKTVLEL (modifications not checked) [HPV18 E6 position 33, 9-mer …]
binding affinity ratio (IC50 of standard peptide / IC50 of test peptide) [20]: 0.022

LACSWGMVV (modifications not checked) [HPV16 E1 267 …]
relative binding ratio (IC50 of standard peptide / IC50 of test peptide) [19]: 0.0006

NVLKTSNAK (modifications not checked) [HPV16 E1 peptide … (position 196, 9 amino acids)]
relative binding ratio (IC50 of standard peptide / IC50 of test peptide) [11]: 0.0005
relative binding ratio (IC50 of standard peptide / IC50 of test peptide) [12]: 0.0015
binding affinity ratio (IC50 of the standard peptide / IC50 of the test peptide) [13]: 0.0005

PYKLPDLCTEL (modifications not checked) [HPV18 E6 position 11, 11-mer …]
binding affinity ratio (IC50 of standard peptide / IC50 of test peptide) [20]: 0.0064

RPIVQFLRY (modifications not checked) [HPV45 E1 433 peptide …]
binding affinity ratio (IC50 of standard peptide / IC50 of test peptide) (ratio relative to standard peptide) [7]: 0.0033
binding affinity ratio (IC50 of standard peptide / IC50 of test peptide) (ratio relative to standard peptide) [8]: 0.04
binding affinity ratio (IC50 of standard peptide / IC50 of test peptide) (ratio relative to standard peptide) [9]: 0.023

VFEFAFKDLF (modifications not checked) [HPV18 E6 position 44, 10-mer …]
binding affinity ratio (IC50 of standard peptide / IC50 of test peptide) [20]: 0.036
